# Test results: paper PMC5868845
# Target: 4F2hc (UniProt P08195)
# Assay: co-IP from transfected 293FT, western blot
# Conditions: reference: Flag-NT wild type
Substance,binding against the reference (sites S233),binding against the reference (sites S237)
"Girdin NT domain, 1-256 (from UniProt Q3V6T2) Flag-NT S233A",lost,
"Girdin NT domain, 1-256 (from UniProt Q3V6T2) Flag-NT S237A",,lost
